According to US20210214440A1 (Janssen / Centocor, published 2021):

What follows are binders tested against T1, human CD8 on human pan T cells (human, UniProt P01732 22-235; P10966 22-210) (assay: flow cytometry, 20 nM mAb on human pan T cells).
T1 construct: Native CD8 on the CD4-negative population of human pan T cells
Description: Secondary antibodies were A647-conjugated goat anti human IgG Fc antibody at 2 μg/mL, and A488-conjugated mouse anti-human CD4 at 1 μg/mL in staining buffer. Live cells were also gated based on OKT8 control mAb binding. Percent CD8 positive population was calculated by percentage of CD8-positive cell count/live cell count.

T1 sequence (P01732 22-235, chain 1 of 2): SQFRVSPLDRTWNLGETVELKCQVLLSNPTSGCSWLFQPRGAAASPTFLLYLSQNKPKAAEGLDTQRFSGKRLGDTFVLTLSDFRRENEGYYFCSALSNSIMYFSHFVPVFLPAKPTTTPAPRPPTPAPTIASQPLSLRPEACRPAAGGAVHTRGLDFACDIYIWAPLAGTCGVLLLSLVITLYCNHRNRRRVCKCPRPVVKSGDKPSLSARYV
T1 sequence (P10966 22-210, chain 2 of 2): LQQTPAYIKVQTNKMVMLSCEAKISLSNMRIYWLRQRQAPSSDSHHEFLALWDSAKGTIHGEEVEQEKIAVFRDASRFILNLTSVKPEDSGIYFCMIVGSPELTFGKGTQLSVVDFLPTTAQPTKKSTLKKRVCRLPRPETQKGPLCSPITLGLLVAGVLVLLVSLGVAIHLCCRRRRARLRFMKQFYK

| Cell Binding to Human PanT Signal/Background (of CD4 negative population) | Binder |
| --- | --- |
| 1200 | CD8B347 (antibody, human IgG1, kappa, full-length human IgG1, kappa) heavy: not shown light: DIQMTQSPASLSASVGETVTITCRASGNIHNYLAWYQQKQGKSPQLLVFNAETLADGVPSRFSGSGSGTQFSLKINSLQPEDFGTYYCQHFWNNPLTLGAGTKLELKRTVAAPSVFIFPPSDEQLKSGTASVVCLLNNFYPREAKVQWKVDNALQSGNSQESVTEQDSKDSTYSLSSTLTLSKADYEKHKVYACEVTHQGLSSPVTKSFNRGEC |
| 777 | CD8B356 (antibody, human IgG1, kappa, V domains shown, full-length human IgG1, kappa) VH: DVQLQESGPGLVKPSQSLSLTCSVTGYSITSGYYWNWIRQFPGNKLEWMGYISYDGSNNYNPSLKNRISITRDTSKNQFFLKLNSVTTEDTATYYCVRNHGDAMDYWGQGTSVTVSS VL: DIVLTQSQKFMSTTVGDRVSITCKASQNVGTAVAWYQQKPGQSPKLLIYSASYRYTGVPDRFTGSGSGTHFTLTISNMQSEDLADYFCQQYSSYLTFGSGTKLEIKR |
| 1560 | CD8B364 (antibody, human IgG1, kappa, V domains shown, full-length human IgG1, kappa) VH: QVQLQQPGAELVKPGASVKLSCKASGYTFTSYWMHWVNRRPGQGLEWIGEINPSNGDSYYNEKFKRKATLTVDISSSTAYMQLSSLTSEDSAVYYCTRSMYYDGRAGAYWGQGTTVTVSS VL: DIVLTQSPASLSVATGEKVTIRCITSTDIDDDMNWYQQKPGEPPKLLISEGNTLRPGVPSRFSSSGYGTDFVFTIENTLSEDVADYYCLQSDNMPLTFGAGTKLELKR |
| 923 | CD8B304 (antibody, human IgG1, kappa, V domains shown, full-length human IgG1, kappa) VH: QVTLKESGPGILKPSQTLSLTCSFSGFSLSTSGMNVGWIRQPSGKGLEWLAHIWWDDDKYYNPSLKSQLTISKDTSRNQVFLKITSVDTADTATYYCARRGNYGNYEFAYWGQGTTVTVSS VL: DIQMTQTTSSLSASLGDRVTISCRASQDIRNYLNWYQQKPDGTVKLLIYHTSRLHSGVPSRFSGSGSGTDYSLTISNLDQEDIATYFCQQGNTLPWTFGAGTKLELKR |
| 1050 | CD8B361 (antibody, human IgG1, kappa, V domains shown, full-length human IgG1, kappa) VH: EVQLQQSGPELVKPGNSVKMSCKASGYTFTDYYMDWVKQSHGTSLEWIGYIYPNNGDTRYNQKFKDKATLTVDKSSSTAYMELHSLTSEDSAVFYCARSIYYDHGGGFPYWGQGTLVTVSA VL: DIVMTQSQKFMSTSVGDRVSVTCKASQNVGTYVAWYQQKPGQSPKALIYSASYRYSGVPDRFTGSGSGTDFTLTINNVQSEDLAEYLCQQYNSYPTFGGGTRLEIKR |
| 1180 | CD8B303 (antibody, human IgG1, kappa, V domains shown, full-length human IgG1, kappa) VH: QVQLKESGPGLVAPSQSLSITCTVSGFSLSIYSIHWVRQPPGKGLEWLGMIWGGGSTDYNSTLNSRLSIIKDNSKSQVFLKMNSLQTDDTAMYYCARNPHHYGGSTGAMDYWGQGTTVTVSS VL: DVQMIQSPSSLSASLGGTVTITCKASQDIKKYMAWYQHKPGKGPRLLIHYTSSLQPGIPSRFSGSGSGRDYYFSISNLEPEDIATYFCLQYDNLFTFGSGTKLELKR |
| 537 | CD8B350 (antibody, human IgG1, kappa, V domains shown, full-length human IgG1, kappa) VH: EVQLQQSGAELAKPGTSVKMSCKASGYTFAAYWINWLKQRPGQGLEWIGSINPSNGYTEYSQKFKDKAILTADKSSSTAYMQLSSLTSEDSAVYYCSRSGLYYTNHLAWCPYWGQGTTVTVSS VL: DIVMTQSPASLSASVGETVTITCRASGNIHNYLAWYQQKQGKSPQVLVYNAETLADSVPSRFSGSGSGTQFSLKINSLQPEDFGNYYCQHFWNSPLTFGGGTKLEIKR |
| 938 | CD8B273 (antibody, human IgG1, kappa, V domains shown, full-length human IgG1, kappa) VH: QVQLQQSGAELVKPGASVKLSCKASGYTFTEYTIHWVKQRSGQGLEWIGWFYPGTGSIKYNEKFKDKATLTADKSSHTVYMELSKLTSEDSAVYFCARHEDNHYYDGNSWFAYWGQGTLVTVSA VL: DIQMTQSPASLSASVGETVTITCRASGNIHNYLAWFQQKQGKSPQLLVYNAKTLADGVPSRFSGSGSGTQYSLKINSLQAEDFGSYYCQHFWSTPYTFGSGTKLEIKR |
| 911 | CD8B271 (antibody, human IgG1, kappa, V domains shown, full-length human IgG1, kappa) VH: DVQLQESGPGLVAPSQSLSITCTVSGFSLSIYSIHWVRQPPGKGLEWLGMIWGGGDTDYNSALKSRLSISKDNSESQVFLKMNSLQTDDTAMYYCARNPHYYGGTYEYFDVWGTGTTVTVSS VL: DIQMTQTTSSLSASLGDRVTISCSASQGISNYLNWYQQKPDGTVKLLIYDTSILYSGVPSRFSGSGSGTDYSLTISNLEPEDVATYYCQQYSNLPYTFGSGTKLEIKR |
| 1090 | CD8B312 (antibody, human IgG1, kappa, V domains shown, full-length human IgG1, kappa) VH: QVQLQQPGADLVKPGASVKLSCKASGYTFTSFWMHWVKQRPGQGLEWIGNVDPSDSQTHYNQKFKDKATLTVDKSSNTAYMQLSSLTSEDSAVYYCARSTYYRYDGPFTYWGQGTTVTVSS VL: DIVLTQSPATLSVTPGDSVSLSCRASQSINNNLHWYQQKSHESPRLLIKYTSQSISGIPSRFSGSGSGPDFTLSINSVETEDFGMYFCQQSNSWPLTFGGGTKLEIKR |

Second part, the binder before the results:

| Binder | Cell Binding to Human PanT Signal/Background (of CD4 negative population) |
| --- | --- |
| CD8B251 (antibody, human IgG1, kappa, V domains shown, full-length human IgG1, kappa) VH: QVQLKGSGPGLVQPSQSLSITCTVSGFSLTTYAVHWVRQSPGKGLEWLGVIWSGGSTDYNAAFISRLSISKDNSKSQVFFKMNSLQADDTAIYYCARHSYYHYNAMDNWGQGTSVTVSS VL: DIKMTQSQKFMSTTVGDRVSITCKASQNVGTAVAWYQQKPGQSPKLLIYSASNRYTGVPDRFTGSGSGTDFTLTISNMQSEDLADYFCQQYSSYPFTFGSGTKLEIKR | 37 |
| CD8B269 (antibody, human IgG1, kappa, V domains shown, full-length human IgG1, kappa) VH: DVQLQESGPGLVKPSQSLSLTCSVTGYSITSGYYWNWIRQFPGNKLEWMGYISYDGSNNYNPSLKNRISITRDTSKNQFFLKLNSVTTEDTATYYCVRNHGDAMDHWGQGTTLTVSS VL: DIVMTQSQKFMSTSVGDRVRVTCKASQNVGTDVAWYQQKPGQSPKALIYSASYRYSGVPDRFTGSGSGTDFTLTISDVQSEDLAEYFCQQYKSYPLTFGAGTKLELKR | 26 |
| CD8B200 (antibody, human IgG1, kappa, V domains shown, full-length human IgG1, kappa) VH: EVQLQQSGAELVKPGASVKLSCKASGYTFTNYWIHWVKQRPGQGLEWIGNIDPSDSETHYNQKFKDKATLTVDKSSSTAYMQLISLTSEDSAVYYCASGLTGTGYYWGQGTTLTVSS VL: DIQMTQTTSSLSASLGDRVTITCRASQDISPYLNWYQQKPEGTIKLLIYYTSKLHSGVPSRFSGSGSGTDYSLTISNLEQEDIATYFCQQDNTLPYTFGSGTKLELKR | 1990 |
| CD8B246 (antibody, human IgG1, kappa, V domains shown, full-length human IgG1, kappa) VH: QVQLKESGPGILKPSQTLSLTCSFSGFSLSTSGMNVGWIRQPSGKGLEWLAHIWWDDDKYYNPSLKSQLTISKDTSRNQVFLKITSVDTADTATYYCARRGNYGNYEFAYWGQGTTLTVSS VL: DIQMTQTTSSLSASLGDRVTISCRASQDIRNYLNWYQQKPDGTVKLLIYHTSRLHSGVPSRFSGSGSGTDYSLTISNLEQEDIATYFCQQGNTLPWTFGAGTKLELKR | 1110 |
| CD8B270 (antibody, human IgG1, kappa, V domains shown, full-length human IgG1, kappa) VH: QVQLQQPGAELVKPGASVMLSCKASGYTFTNYWMHWVKQRPGQGLEWIGNIDPSDSETHYNQKFKDKATLTVDKSSSTAYMQLSSLTSEDSAVYYCASGLTGTGYYWGQGTTLTVSS VL: DIQMTQTTSSLSASLGDRVTITCRASQDIRPYLNWYQQKPEGTIKLLIYFTSKLHSGVPSRFSGSGSGTDYSLTISNLEQEDIATYFCQQDNTLPYTFGSGTKLELKR | 2500 |
| CD8B213 (antibody, human IgG1, kappa, V domains shown, full-length human IgG1, kappa) VH: EVQLQQSGPELVKPGDSMKMSCKASGYIFTDYYMDWVKQSHGKSLEWIGYIYPNNGITSYNQKFKGRATLTIDKSSSTAYMELHSLTSEDSAVYYCARSIYYDHGGGFPYWGQGTSVTVSS VL: DIVLTQSQKFMSTSVGDRVSVTCKASQNVDKYVAWYQQKPGQSPKALIYSASYRYSGVPDRFTGSGSGTDFTLTISNVQSEDLAEYFCQQYNTYPSFGSGTKLEMKR | 827 |
| CD8B268 (antibody, human IgG1, kappa, V domains shown, full-length human IgG1, kappa) VH: QVQLQQSGAELVKPGASVKLSCKASGYTFTVYTIHWVKQRSGQGLEWIGWFYPGSGNIKYNEKFKDKATLTADKSSHTVYMELSRLTSEDSAVYFCARHEDNHYYDGNSWFAYWGQGTLVTVSA VL: DIQMTQSPASLSASVGQTVTITCRASGNIHNYLAWFQQKQGKSPQLLVYNAKTLADGVPSRFSGSGSGTQYSLKINSLQTEDFGNYYCQHFWNTPYTFGGGTKLEIKR | 1170 |
| CD8B240 (antibody, human IgG1, kappa, full-length human IgG1, kappa) heavy: not shown light: DIVMTQSPATLSVTPGDRVSLSCRASQSISDFLHWYQQKSHESPRLLIKYASQSISGIPSRFSGSGSGSDFTLTINSVEPEDVGVYYCQNGHSFPYTFGSGTKLEIKRTVAAPSVFIFPPSDEQLKSGTASVVCLLNNFYPREAKVQWKVDNALQSGNSQESVTEQDSKDSTYSLSSTLTLSKADYEKHKVYACEVTHQGLSSPVTKSFNRGEC | 1310 |
| CD8B191 (antibody, human IgG1, kappa, full-length human IgG1, kappa) heavy: not shown light: DIVLTQSPATLSVTPGDRVSLSCRASQSISDFLHWYQQKSHESPRLLIKYASQSISGIPSRFSGSGSGSDFTLTINSVEPEDVGVYYCQNGHSFPYTFGSGTKLEIKRTVAAPSVFIFPPSDEQLKSGTASVVCLLNNFYPREAKVQWKVDNALQSGNSQESVTEQDSKDSTYSLSSTLTLSKADYEKHKVYACEVTHQGLSSPVTKSFNRGEC | 2440 |
| CD8B182 (antibody, human IgG1, kappa, V domains shown, full-length human IgG1, kappa) VH: EVQLQQSGAALAKPGTSVKMSCKASGYTFTSYWMNWVRQRPGQGLEWIGAVNPTNYYTEYIQKFKDKAILTADKSSSTAYMHLSGLTSEDSAVYYCARSGLYNTNHLAWFAYWGQGTTVTVSS VL: DIKMTQSPASLSASVGETVTITCRASENIHNYLAWYQQIQGKSPQLLVYNAKTLANGVPSRFSGSASGTQFSLTINSLQPEDFGSYYCQHFWTTPLTFGAGTKLELKR | 1490 |
